The values that follow come from article PMC10998878, “Inhibition of acyl-CoA binding protein (ACBP) by means of a GABAARγ2-derived peptide” (Cell Death & Disease, 2024).

Where no end group is shown, it is not given here.

In data set [1] the test system is Huh-7 cells. As to the kind of experiment: WST-8 conversion (metabolic activation) by Huh-7 cells. It counts as cell-based, human. The following applies: for effect on RecACBP/DBI-stimulated WST-8 conversion: then RecACBP/DBI 4 h, n = 4. The protocol: Media and cell culture supplements were purchased from Gibco-Invitrogen (Carlsbad, CA, USA). Plasticware was purchased from Corning B.V. Life Sciences (Schiphol-Rijk, The Netherlands). Unless reported otherwise, the cell line used in this study was cultured at standard conditions (37 °C, 5% CO2, Dulbecco’s modified Eagle’s medium containing 10% fetal bovine serum, 10 mM HEPES buffer, 100 mg/L sodium pyruvate, 100 U/mL penicillin G sodium, and 100 µg/mL streptomycin sulfate). 2-deoxy-D-glucose (# D8375) and rotenone (# R8875) were purchased from Sigma (Burlington, MA, USA). Human hepatocellular carcinoma (Huh-7) cell line was used for in vitro experiments. Cells were plated in 6- or 96-well plates and grown for 24 h before treatments.
WST-8 conversion assays were conducted utilizing the Cell Counting Kit-8 (Sigma-Aldrich, #96992). Cells were seeded in a 96-well plate at a density of 3000 cells per well and incubated overnight for adherence. Then, the culture medium was removed, and fresh medium containing the specified treatments was added to the wells. Immediately following the addition of treatments, 10 μL of CCK-8 reagent was introduced to each well. Subsequently, the cells were incubated for 4.5 h at 37 °C to facilitate the conversion of WST-8 in response to cellular activity. Following the incubation period, the absorbance at 450 nm was quantified using a VICTOR® Nivo™ microplate reader. This measurement served as an indicator of WST-8 conversion, reflecting cellular metabolic activity.
Fig. 6 Inhibition of the metabolic effects of ACBP/DBI on hepatocytes by the GABAARγ2-derived eicosapeptide. A WST-8 conversion by murine primary hepatocytes treated with increasing concentrations of recombinant ACBP/DBI protein (RecACBP/DBI) for 4 h. Hepatocytes were isolated from tamoxifen-induced Acbp/Dbi f/f or Acbp/Dbi KO full-body genetic background mice (white- or blue-colored graphs respectively). […] For statistical analysis p values are calculated by one-way ANOVA. B WST-8 conversion by control (shUNR) and ACBP/DBI-knocked down (shACBP/DBI) human Huh-7 cells treated with increasing concentrations of RecACBP/DBI for 4 h. shUNR and shACBP/DBI cells are represented by white- or blue-colored graphs respectively. […] C WST-8 conversion by Huh-7 cells treated with RecACBP/DBI or negative control (4 h). Cells were pre-treated with 2-deoxy-D-glucose (2-Deoxy-D-glu; 300 µM) or vehicle (2 h). […] D WST-8 conversion by Huh-7 cells treated with RecACBP/DBI or negative control (4 h). Cells were pre-treated with rotenone (0.5 µM) or vehicle (2 h). […] E WST-8 conversion by Huh-7 cells treated with RecACBP/DBI or negative control (4 h). Prior to administration, RecACBP/DBI was overnight pre-incubated with monoclonal antibody (α-ACBP/DBI) or isotype IgG1. […] F WST-8 conversion by Huh-7 cells treated with RecACBP/DBI or negative control (4 h). Prior to administration, RecACBP/DBI was overnight pre-incubated with GABAARγ2 (WT or F77I-mutated) eicosapeptides.
(In general: Tetrazolium dyes change colour on reduction, which living cells bring about.)

Data set [2] concerns native ACBP/DBI protein (mouse liver extracts). The experiment in a line: Pull down / immunoprecipitation of native ACBP/DBI from liver extracts. It counts as binding. The following applies: mouse liver protein extract (500 μg), peptide-coated beads, overnight 4 °C, immunoblot for ACBP. The protocol: The physical interaction between the native ACBP and GABAARγ2 peptides was examined by standard immunoprecipitation (IP) and immunoblotting protocols. In detail, liver protein extracts (500 μg) were immunoprecipitated on protein A/G-Sepharose beads (Merck Millipore, Burlington, MA, USA, #GE17-0618-01) coated with (1× 2× 4×) either GABAARγ2 wild type (WT) or mutated (F77I) eicosapeptide (Biosynth ltd) or its negative control (PBS). Each IP reaction was incubated overnight (4 °C) in a rotation chamber followed by three consecutive rounds of PBS washing the next day. Each washing round included a PBS resuspension of the pellet and a re-centrifugation (12,000 × g, 4 °C). Finally, beads were resuspended in 20 μL of NUPAGE 4× buffer (Life Technologies, CA, USA, #NP0008), heated at 100 °C (10 min), followed by standard immunoblotting for the ACBP protein (Abcam #ab231910).
Fig. 5 Biophysical and biochemical detection of a direct interaction between ACBP/DBI and the GABAARγ2-derived eicosapeptide. A Schematic representation of the GABAAR and the GABAARγ2-derived eicosapeptides. B Surface plasmon resonance kinetics of ACBP-GABAARγ2-derived eicosapeptide (WT and F77I) interactions. Representative ACBP immunoblot (C) from control- or GABAARγ2-immunoprecipitated samples. Anti-GABAARγ2 immunoprecipitation (IP) assay was employed in order to validate the GABAARγ2 WT peptide interaction with native ACBP (in murine hepatic protein extracts), and quantification (D). […] For statistical analysis p value (indicating statistical comparisons with the control condition) was calculated by Mann–Whitney U-test. E Anti-GABAARγ2 IP assay to address the physical interaction between GABAARγ2 peptides and murine hepatic ACBP protein. Interaction was validated using an increasing gradient of biotinylated WT/F77I peptides that were bound on the surface of streptavidin beads as part of the IP assay. […]

The target in data set [3] is T1, recombinant murine ACBP/DBI (acyl-CoA binding protein / diazepam binding inhibitor) (mouse, UniProt P31786 1-87, biotin (site not stated; for the SPR chip)).
T1 construct: Biotinylated for immobilisation on the SA chip; in the food intake experiment murine RecACBP/DBI was injected and no biotin is mentioned; also called RecACBP/DBI; recombinant ACBP/DBI; source: recombinant, from the Institute of Psychiatry and Neuroscience of Paris, France
T1 sequence (looked up): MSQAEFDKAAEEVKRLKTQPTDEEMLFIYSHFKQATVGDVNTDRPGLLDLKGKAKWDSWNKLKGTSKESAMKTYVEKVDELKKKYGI
The experiment in a line: SPR; Biacore 2000; biotinylated ACBP/DBI immobilised on SA chip (1600 RU); peptides injected at 10 µM and 100 µM in HBS-EP, 30 µL/min, 25 °C; association 4 min, dissociation 5 min; control surface streptavidin alone. The note with it: both partners purified. On the technique in general: Surface plasmon resonance follows binding to a sensor surface in real time, without labels.

Data set [4] concerns C57BL/6 mice. The experiment in a line: Food intake after intravenous injection. It counts as in vivo, mouse. The following applies: i.v., 0.5 mg/kg, after 24 h starvation, cumulative food intake 30 min, n = 4 to 9. The protocol:
Prior to experimentation, mice were subjected to 24 h starvation followed by individual housing and acclimatization in individual cages (2 h). Subsequently, mice were intravenously (i.v.) injected with recombinant ACBP/DBI protein (RecACBP/DBI) (total volume of 200 μL, 0.5 mg/kg body weight), either alone or in combination with GABAARγ2 peptides (5× molar excess). Cumulative food intake was then analyzed as previously described. Prior to i.v. injections, the RecACBP mixes were pre-incubated (16 h, 4 °C) with GABAARγ2 peptides.

The test system of data set [5] is primary mouse hepatocytes. The experiment in a line: WST-8 conversion (metabolic activation) by primary hepatocytes. It counts as cell-based. The following applies: Acbp/Dbi f/f and KO, increasing concentrations of RecACBP/DBI, 4 h (text: within 4.5 h), n = 3. The protocol:
After filtration through a 100 µm cell strainer and successive centrifugations at 30 × g, 4 °C for 5 min, cells were resuspended in the following attachment culture medium: DMEM/F12, 20 mM HEPES (pH = 7.4), 5 mM glucose, 10% FBS (Sigma), 5 mg/mL BSA, 100 U/mL penicillin, and 100 μg/mL streptomycin. The cells were then purified by density gradient centrifugation using an isotonic solution of Percoll (GE Healthcare Bio-Sciences AB, Uppsala, Sweden). Cell viability was assessed using Trypan blue exclusion. Cells were plated in a 96-well plate overnight to facilitate cell attachment before proceeding with experiments.
WST-8 conversion assays were conducted utilizing the Cell Counting Kit-8 (Sigma-Aldrich, #96992). Cells were seeded in a 96-well plate at a density of 3000 cells per well and incubated overnight for adherence. Then, the culture medium was removed, and fresh medium containing the specified treatments was added to the wells. Immediately following the addition of treatments, 10 μL of CCK-8 reagent was introduced to each well. […] Following the incubation period, the absorbance at 450 nm was quantified using a VICTOR® Nivo™ microplate reader. […]
Fig. 6 Inhibition of the metabolic effects of ACBP/DBI on hepatocytes by the GABAARγ2-derived eicosapeptide. […] For statistical analysis p values are calculated by one-way ANOVA. […]

Turning to `O=CC[C@@H](O)[C@H](O)[C@H](O)CO` [2-deoxy-D-glucose, reference compound], the “effect on RecACBP/DBI-stimulated WST-8 conversion” value in data set [1] (pre-treated with 2-deoxy-D-glucose 300 µM for 2 h) is “abolished”.
Regarding `C=C(C)[C@H]1Cc2c(ccc3c2O[C@@H]2COc4cc(OC)c(OC)cc4[C@@H]2C3=O)O1` [rotenone, reference compound], the “effect on RecACBP/DBI-stimulated WST-8 conversion” value in data set [1] (pre-treated with rotenone 0.5 µM for 2 h) is reported as “abolished”.
As to “Biotinylated GABAARγ2-EP-WT: Biotinylated GABAARγ2-EP-WT immobilized on streptavidin-precoated beads (INMEYTIDIFFAQTWYDRRL; also: biotin, site not given here)”, the “pull down of endogenous/native ACBP/DBI, in words” value in data set [2] is “absorbed endogenous ACBP/DBI protein from mouse liver extracts”.

B1: GABAARγ2-derived eicosapeptide, wild type (GABAARγ2-EP-WT) (peptide)
peptide: INMEYTIDIFFAQTWYDRRL
notes: GABAA receptor gamma-2 subunit (GABRG2), 20-mer with F77 in position 10; 100% identical in zebrafish, chicken, mouse and human; Stocked in DMSO at 1 mg/mL; used without a stated biotin in SPR and in the functional tests; also called GABAARγ2 WT peptide; WT EP; source: synthetic peptide (Biosynth ltd)
On to B1, for which, in data set [3], the binding result is “binds”.

B2: recombinant ACBP/DBI protein: recombinant acyl-CoA binding protein encoded by diazepam binding inhibitor (protein)
chain: T1 sequence (looked up)
modifications: biotin (site not stated; for the SPR chip)
In the case of B2, the “food intake / appetite, effect of recombinant ACBP/DBI” value in data set [4] is “induced an increase in appetite”. Further, the “WST-8 conversion, metabolic activation by the substance” value in data set [1] (shUNR and shACBP/DBI, increasing concentrations of RecACBP/DBI, 4 h (text: within 4.5 h), n = 8–9) is on record as “increase in the capacity to reduce”; in data set [5] it was “increase in the capacity to reduce”.
